Among the data in US20260258410 are Kd values, retold here.

The term Kd denotes the equilibrium constant for the complex coming apart.

The subject of the series is T1, ADAR2 R2D E488Q (dsRBD2 + deaminase domain) E488Q (Homo sapiens), P78563-2.
T1 sequence: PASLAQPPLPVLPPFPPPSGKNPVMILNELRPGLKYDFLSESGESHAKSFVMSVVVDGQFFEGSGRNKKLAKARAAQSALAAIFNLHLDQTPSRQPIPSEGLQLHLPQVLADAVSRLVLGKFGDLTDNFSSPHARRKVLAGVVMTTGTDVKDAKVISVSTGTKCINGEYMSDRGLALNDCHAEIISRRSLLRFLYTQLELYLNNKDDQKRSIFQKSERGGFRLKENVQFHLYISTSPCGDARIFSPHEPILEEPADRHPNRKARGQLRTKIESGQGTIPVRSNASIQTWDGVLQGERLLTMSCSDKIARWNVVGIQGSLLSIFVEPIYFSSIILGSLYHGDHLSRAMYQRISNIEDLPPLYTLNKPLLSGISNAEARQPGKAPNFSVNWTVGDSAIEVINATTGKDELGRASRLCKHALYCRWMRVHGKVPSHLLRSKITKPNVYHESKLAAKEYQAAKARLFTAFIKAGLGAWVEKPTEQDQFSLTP
The experiment in a line: EMSA. The conditions noted are these: 8-azanebularine at position 13 of SEQ 7; protein 0.25-256 nM. In general terms: In EMSA bound probe runs differently from free probe, usually more slowly.

Turning to “GCUCGCGAUGCGNGAGGGCUCUGAUAGCUACG / CGUAGCUAUCAGAGCCCCCCGGCAUCGCGAGC [32 bp GLI1 GG RNA with 8-azanebularine]”, the Kd was 6 nM.
